In patent publication US7304127:
“And” between values parts separate entries of the source, which are not always exact repeats. Identical values can stand only once.

The binders below were run against HIV-1LAI envelope gp120 labeled with radioactive iodine (HIV-1 LAI), P03377 (assay: 125I-gp120, peptide array).
In the case of WVVAVFASLPGIIFTRSQ (modifications not checked) [CCR5 153-170], the counts minus background (counts per 20 min) is reported as 87.
VFASLPGIIFTRSQKEGL (modifications not checked) [CCR5 157-174] was tested, and the counts minus background (counts per 20 min) was 54.
With FWKNFQTLKIVILGLVLP (modifications not checked) [CCR5 189-206] the counts minus background (counts per 20 min) was 40.
With SEPCQKINVKQIAARLLP (modifications not checked) [CCR5 17-34] the counts minus background (counts per 20 min) was -44.
QAMQVTETLGMTHCCINP (modifications not checked) [CCR5 277-294] gave a counts minus background (counts per 20 min) of 81.
With VMVICYSGILKTLLRCRN (modifications not checked) [CCR5 209-226] the counts minus background (counts per 20 min) was -8.
AVRLIFTIMIVYFLFWAP (modifications not checked) [CCR5 233-250] showed a counts minus background (counts per 20 min) of 62.
For NRLDQAMQVTETLGMTHC (modifications not checked) [CCR5 273-290], the counts minus background (counts per 20 min) was 10.
RNYLLVFFQKHIAKRFCK (modifications not checked) [CCR5 305-322] was tested, and the counts minus background (counts per 20 min) was 65.
For VKQIAARLLPPLYSLVFI (modifications not checked) [CCR5 25-42], the counts minus background (counts per 20 min) was 18.
In the case of GVVTSVITWVVAVFASLP (modifications not checked) [CCR5 145-162], the counts minus background (counts per 20 min) is reported as 69.
For CSSSNRLDQAMQVTETLG (modifications not checked) [CCR5 269-286], the counts minus background (counts per 20 min) was 90.
With GLNNCSSSNRLDQAMQVT (modifications not checked) [CCR5 265-282] the counts minus background (counts per 20 min) was -31.
TCSSHFPYSQYQFWKNFQ (modifications not checked) [CCR5 177-194] was tested, and the counts minus background (counts per 20 min) was 367.
IVLLLNTFQEFFGLNNCS (modifications not checked) [CCR5 253-270] was tested, and the counts minus background (counts per 20 min) was 2130.
For VTETLGMTHCCINPIIYA (modifications not checked) [CCR5 281-298], the counts minus background (counts per 20 min) was 15.
QEFFGLNNCSSSNRLDQA (modifications not checked) [CCR5 261-278] gave a counts minus background (counts per 20 min) of 63.
Work on RNEKKRHRAVRLIFTIMI (modifications not checked) [CCR5 225-242] yielded a counts minus background (counts per 20 min) of 23.
For NYYTSEPCQKINVKQIAA (modifications not checked) [CCR5 13-30], the counts minus background (counts per 20 min) was 6.
In the case of TVTFGVVTSVITWVVAVF (modifications not checked) [CCR5 141-158], the counts minus background (counts per 20 min) is reported as -25.
For GLHYTCSSHFPYSQYQFW (modifications not checked) [CCR5 173-190], the counts minus background (counts per 20 min) was 301.
Work on QKINVKQIAARLLPPLYS (modifications not checked) [CCR5 21-38] yielded a counts minus background (counts per 20 min) of 20.
For QWKSSEDNSKTFSASHNV (modifications not checked) [STRL33 317-334], the counts minus background (counts per 20 min) was 464 and 534.
AVFALKARTVTFGVVTSV (modifications not checked) [CCR5 133-150] was tested, and the counts minus background (counts per 20 min) was 63.
For FQTLKIVILGLVLPLLVM (modifications not checked) [CCR5 193-210], the counts minus background (counts per 20 min) was 45.
GEKFRNYLLVFFQKHIAK (modifications not checked) [CCR5 301-318] was tested, and the counts minus background (counts per 20 min) was 69.
LPLLVMVICYSGILKTLL (modifications not checked) [CCR5 205-222] was tested, and the counts minus background (counts per 20 min) was 68.
Work on YAFVGEKFRNYLLVFFQK (modifications not checked) [CCR5 297-314] yielded a counts minus background (counts per 20 min) of 596.
Binder SQYQFWKNFQTLKIVILG (modifications not checked) [CCR5 185-202] has a counts minus background (counts per 20 min) of 1570.
With LKARTVTFGVVTSVITWV (modifications not checked) [CCR5 137-154] the counts minus background (counts per 20 min) was 74.
APYNIVLLLNTFQEFFGL (modifications not checked) [CCR5 249-266] was tested, and the counts minus background (counts per 20 min) was 1960.
SQKEGLHYTCSSHFPYSQ (modifications not checked) [CCR5 169-186] was tested, and the counts minus background (counts per 20 min) was 304.
SKTFSASHNVEATSMFQL (modifications not checked) [STRL33 325-342] was tested, and the counts minus background (counts per 20 min) was 1520 and 1240.
Binder LGMTHCCINPIIYAFVGE (modifications not checked) [CCR5 285-302] has a counts minus background (counts per 20 min) of 282.
With GVSHQWKSSEDNSKTFSA (modifications not checked) [STRL33 313-330] the counts minus background (counts per 20 min) was 208 and 306.
Work on CYSGILKTLLRCRNEKKR (modifications not checked) [CCR5 213-230] yielded a counts minus background (counts per 20 min) of 70.
HFPYSQYQFWKNFQTLKI (modifications not checked) [CCR5 181-198] was tested, and the counts minus background (counts per 20 min) was 1010.
Work on LNTFQEFFGLNNCSSSNR (modifications not checked) [CCR5 257-274] yielded a counts minus background (counts per 20 min) of 293.
With FLFWAPYNIVLLLNTFQE (modifications not checked) [CCR5 245-262] the counts minus background (counts per 20 min) was 616.
ILKTLLRCRNEKKRHRAV (modifications not checked) [CCR5 217-234] was tested, and the counts minus background (counts per 20 min) was 19.
Work on HCCINPIIYAFVGEKFRN (modifications not checked) [CCR5 289-306] yielded a counts minus background (counts per 20 min) of 200.
For KIVILGLVLPLLVMVICY (modifications not checked) [CCR5 197-214], the counts minus background (counts per 20 min) was 65.
AVVHAVFALKARTVTFGV (modifications not checked) [CCR5 129-146] was tested, and the counts minus background (counts per 20 min) was 34.
For KRHRAVRLIFTIMIVYFL (modifications not checked) [CCR5 229-246], the counts minus background (counts per 20 min) was 36.
For SEDNSKTFSASHNVEATS (modifications not checked) [STRL33 321-338], the counts minus background (counts per 20 min) was 524 and 434.
SVITWVVAVFASLPGIIF (modifications not checked) [CCR5 149-166] was tested, and the counts minus background (counts per 20 min) was 46.
Binder NPIIYAFVGEKFRNYLLV (modifications not checked) [CCR5 293-310] has a counts minus background (counts per 20 min) of 162.
